We go through one molecule from paper PMC4176333.

Where two headings read alike, the source gives them in different places.

For one data set, the target named is T1, YxiN_core (UniProt P42305 1-368).
T1 sequence: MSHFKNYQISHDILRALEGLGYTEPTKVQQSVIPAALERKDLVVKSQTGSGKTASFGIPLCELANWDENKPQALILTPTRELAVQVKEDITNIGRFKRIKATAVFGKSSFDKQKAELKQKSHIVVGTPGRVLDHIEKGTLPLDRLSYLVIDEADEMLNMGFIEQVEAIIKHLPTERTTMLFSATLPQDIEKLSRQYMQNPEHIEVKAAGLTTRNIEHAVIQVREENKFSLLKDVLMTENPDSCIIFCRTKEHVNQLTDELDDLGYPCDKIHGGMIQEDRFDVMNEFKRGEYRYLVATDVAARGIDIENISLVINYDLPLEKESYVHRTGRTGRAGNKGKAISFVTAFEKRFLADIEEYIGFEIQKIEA
In words: fluorescence intensity titration.

In a further data set the target is T2, YxiN RecA_C (UniProt P42305 211-370).
T2 sequence: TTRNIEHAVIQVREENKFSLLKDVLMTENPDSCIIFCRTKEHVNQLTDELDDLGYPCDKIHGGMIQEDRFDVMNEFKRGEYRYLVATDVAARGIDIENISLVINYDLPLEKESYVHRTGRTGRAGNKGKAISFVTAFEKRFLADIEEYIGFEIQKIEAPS
The experiment in a line: fluorescence anisotropy. In general terms: Fluorescence polarisation rises when a labelled molecule tumbles more slowly, as on binding a larger partner.

The next data set concerns the target T3, YxiN RecA_N (UniProt P42305 1-206).
T3 sequence: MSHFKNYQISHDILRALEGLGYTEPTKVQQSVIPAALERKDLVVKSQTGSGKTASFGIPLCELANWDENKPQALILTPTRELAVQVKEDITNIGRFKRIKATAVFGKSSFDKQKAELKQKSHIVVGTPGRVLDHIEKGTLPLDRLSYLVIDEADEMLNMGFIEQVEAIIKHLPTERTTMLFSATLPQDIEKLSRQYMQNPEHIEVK
In words: fluorescence anisotropy.

The next data set deals with T4, Hera RecA_C (UniProt Q72GF3 208-369).
T4 sequence: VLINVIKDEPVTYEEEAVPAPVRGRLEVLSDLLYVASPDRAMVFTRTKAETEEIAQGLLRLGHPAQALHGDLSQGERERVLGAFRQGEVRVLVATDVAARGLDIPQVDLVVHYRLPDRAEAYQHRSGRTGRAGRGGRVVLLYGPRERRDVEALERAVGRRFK
In words: fluorescence intensity titration.

Data set [1] addresses T5, Hera_core (UniProt Q72GF3 1-365).
T5 sequence: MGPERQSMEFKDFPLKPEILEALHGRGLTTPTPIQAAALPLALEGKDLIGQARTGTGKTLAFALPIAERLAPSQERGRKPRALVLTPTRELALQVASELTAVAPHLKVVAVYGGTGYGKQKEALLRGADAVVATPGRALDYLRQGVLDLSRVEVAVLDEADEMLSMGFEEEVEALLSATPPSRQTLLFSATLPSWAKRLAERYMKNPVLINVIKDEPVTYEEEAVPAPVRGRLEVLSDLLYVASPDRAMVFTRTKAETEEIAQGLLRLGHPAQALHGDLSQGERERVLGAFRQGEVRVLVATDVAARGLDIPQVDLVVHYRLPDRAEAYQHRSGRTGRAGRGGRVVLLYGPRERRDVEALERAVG
In words: fluorescence intensity titration.

In the next data set the target is T6, Hera RecA_N (UniProt Q72GF3 1-207).
T6 sequence: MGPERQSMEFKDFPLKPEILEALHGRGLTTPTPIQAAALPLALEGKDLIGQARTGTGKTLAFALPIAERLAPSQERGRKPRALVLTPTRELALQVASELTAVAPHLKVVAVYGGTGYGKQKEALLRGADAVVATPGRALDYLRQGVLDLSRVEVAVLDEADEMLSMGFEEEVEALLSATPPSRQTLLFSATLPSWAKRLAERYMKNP
The experiment in a line: fluorescence intensity titration.

Data set [2] has as its target T5, Hera_core. In words: fluorescence intensity titration. The source holds these as a separate data set.

B1: 14mer dsRNA (dsRNA)
RNA 1: GGGCGGGCCCGCCC
RNA 2: GGGCGGGCCCGCCC
Regarding B1, the Kd (commonly a measure of binding affinity in units of concentration) with YxiN_core came to 2 nM; with Hera RecA_C, 327 ± 161 nM; in the data set with Hera_core [1], 7 ± 3 nM; in the data set with Hera RecA_N, 889 ± 236 nM; in the data set with Hera_core [2], 15.1 nM. Further, the binding result with YxiN RecA_C and with YxiN RecA_N was “no binding” throughout.
